Results as given in the supplement of paper PMC9112550, “Optimization of the antimicrobial peptide Bac7 by deep mutational scanning” (BMC Biology, 2022).

Test system: Escherichia coli TOP10
Assay: shrunken log2 fold change of peptide-encoding DNA abundance (4.5 h post-induction vs induction); higher = less antimicrobial activity (less host growth inhibition)
Conditions: time post-induction: 4.5 h; library: site-saturation at positions 5, 18, 19, 20
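Further: peptides expressed intracellularly from a pBAD plasmid library in pooled LB shake-flask culture, induced with 0.3% L-arabinose, DNA abundance read by NGS, three biological replicates, DESeq2 with apeglm shrinkage.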

Sequence	shrunken log2 fold change
RRIRSRPPRLPRPRPRPDAEPRP	0.984
RRIRSRPPRLPRPRPRPDAPPRP	0.49
RRIRSRPPRLPRPRPRPDCAPRP	0.187
RRIRSRPPRLPRPRPRPDCYPRP	-0.374
RRIRSRPPRLPRPRPRPDDIPRP	-0.00173
RRIRSRPPRLPRPRPRPDDYPRP	0.0211
RRIRSRPPRLPRPRPRPDEMPRP	0.435
RRIRSRPPRLPRPRPRPDEVPRP	0.0037
RRIRSRPPRLPRPRPRPDGRPRP	0.0253
RRIRSRPPRLPRPRPRPDGVPRP	-0.115
RRIRSRPPRLPRPRPRPDIKPRP	-0.336
RRIRSRPPRLPRPRPRPDIRPRP	-0.0108
RRIRSRPPRLPRPRPRPDKGPRP	-0.108
RRIRSRPPRLPRPRPRPDPDPRP	-0.0414
RRIRSRPPRLPRPRPRPDRGPRP	-0.0384
RRIRSRPPRLPRPRPRPDRMPRP	-0.129
RRIRSRPPRLPRPRPRPDVQPRP	-0.147
RRIRSRPPRLPRPRPRPDYCPRP	-0.284
RRIRSRPPRLPRPRPRPDYLPRP	-0.0749
RRIRSRPPRLPRPRPRPECFPRP	3.03
RRIRSRPPRLPRPRPRPEDHPRP	0.146
RRIRSRPPRLPRPRPRPEEIPRP	-0.00908
RRIRSRPPRLPRPRPRPEGDPRP	0.203
RRIRSRPPRLPRPRPRPEHIPRP	0.0843
RRIRSRPPRLPRPRPRPEKSPRP	-0.32

Sequence	shrunken log2 fold change
RRIRSRPPRLPRPRPRPELEPRP	0.54
RRIRSRPPRLPRPRPRPELFPRP	0.104
RRIRSRPPRLPRPRPRPELPPRP	0.0311
RRIRSRPPRLPRPRPRPEMEPRP	0.00902
RRIRSRPPRLPRPRPRPEMGPRP	0.128
RRIRSRPPRLPRPRPRPEMMPRP	0.681
RRIRSRPPRLPRPRPRPENDPRP	-0.0386
RRIRSRPPRLPRPRPRPENSPRP	-0.0239
RRIRSRPPRLPRPRPRPEPHPRP	0.0658
RRIRSRPPRLPRPRPRPERIPRP	-0.065
RRIRSRPPRLPRPRPRPERMPRP	0.263
RRIRSRPPRLPRPRPRPERTPRP	0.0493
RRIRSRPPRLPRPRPRPESEPRP	0.0793
RRIRSRPPRLPRPRPRPESQPRP	0.0194
RRIRSRPPRLPRPRPRPESSPRP	0.00287
RRIRSRPPRLPRPRPRPETYPRP	-0.293
RRIRSRPPRLPRPRPRPEVRPRP	-0.109
RRIRSRPPRLPRPRPRPEVTPRP	0.501
RRIRSRPPRLPRPRPRPEWDPRP	0.365
RRIRSRPPRLPRPRPRPEWHPRP	0.0472
RRIRSRPPRLPRPRPRPEWPPRP	0.112
RRIRSRPPRLPRPRPRPFAFPRP	-0.0807
RRIRSRPPRLPRPRPRPFAIPRP	-0.638
RRIRSRPPRLPRPRPRPFALPRP	-0.0971
RRIRSRPPRLPRPRPRPFAVPRP	-0.113

Sequence	shrunken log2 fold change
RRIRSRPPRLPRPRPRPFCAPRP	0.0376
RRIRSRPPRLPRPRPRPFCMPRP	-0.324
RRIRSRPPRLPRPRPRPFDCPRP	-0.277
RRIRSRPPRLPRPRPRPFDLPRP	-0.419
RRIRSRPPRLPRPRPRPFDRPRP	-0.118
RRIRSRPPRLPRPRPRPFEWPRP	0.0589
RRIRSRPPRLPRPRPRPFFFPRP	0.168
RRIRSRPPRLPRPRPRPFFIPRP	-0.547
RRIRSRPPRLPRPRPRPFFNPRP	0.00333
RRIRSRPPRLPRPRPRPFFPPRP	-0.196
RRIRSRPPRLPRPRPRPFGRPRP	-0.0701
RRIRSRPPRLPRPRPRPFILPRP	-0.695
RRIRSRPPRLPRPRPRPFKDPRP	-0.11
RRIRSRPPRLPRPRPRPFKEPRP	-0.117
RRIRSRPPRLPRPRPRPFMWPRP	-0.165
RRIRSRPPRLPRPRPRPFNNPRP	-0.458
RRIRSRPPRLPRPRPRPFNTPRP	-0.257
RRIRSRPPRLPRPRPRPFNVPRP	-0.343
RRIRSRPPRLPRPRPRPFQSPRP	-0.167
RRIRSRPPRLPRPRPRPFQWPRP	0.319
RRIRSRPPRLPRPRPRPFRCPRP	-0.148
RRIRSRPPRLPRPRPRPFSKPRP	-0.0877
RRIRSRPPRLPRPRPRPFSLPRP	-0.506
RRIRSRPPRLPRPRPRPFTAPRP	-0.492
RRIRSRPPRLPRPRPRPFVAPRP	-0.0664

Sequence	shrunken log2 fold change
RRIRSRPPRLPRPRPRPFYLPRP	-0.818
RRIRSRPPRLPRPRPRPFYRPRP	-0.271
RRIRSRPPRLPRPRPRPGAHPRP	0.0286
RRIRSRPPRLPRPRPRPGANPRP	0.0967
RRIRSRPPRLPRPRPRPGASPRP	0.418
RRIRSRPPRLPRPRPRPGCVPRP	0.247
RRIRSRPPRLPRPRPRPGCWPRP	0.593
RRIRSRPPRLPRPRPRPGELPRP	0.0807
RRIRSRPPRLPRPRPRPGKTPRP	-0.112
RRIRSRPPRLPRPRPRPGLGPRP	0.485
RRIRSRPPRLPRPRPRPGPGPRP	0.599
RRIRSRPPRLPRPRPRPGRGPRP	0.715
RRIRSRPPRLPRPRPRPGSHPRP	-0.104
RRIRSRPPRLPRPRPRPGVKPRP	0.235
RRIRSRPPRLPRPRPRPGVSPRP	0.119
RRIRSRPPRLPRPRPRPGWEPRP	-0.0365
RRIRSRPPRLPRPRPRPGWLPRP	0.177
RRIRSRPPRLPRPRPRPGYQPRP	-0.147
RRIRSRPPRLPRPRPRPHAHPRP	-0.32
RRIRSRPPRLPRPRPRPHAVPRP	0.0594
RRIRSRPPRLPRPRPRPHCWPRP	-0.0424
RRIRSRPPRLPRPRPRPHDGPRP	-0.01
RRIRSRPPRLPRPRPRPHDLPRP	0.0653
RRIRSRPPRLPRPRPRPHDMPRP	-0.335
RRIRSRPPRLPRPRPRPHDNPRP	-0.308

Sequence	shrunken log2 fold change
RRIRSRPPRLPRPRPRPHFSPRP	-0.112
RRIRSRPPRLPRPRPRPHFVPRP	-0.0872
RRIRSRPPRLPRPRPRPHGAPRP	0.104
RRIRSRPPRLPRPRPRPHGIPRP	-0.273
RRIRSRPPRLPRPRPRPHHMPRP	-1.11
RRIRSRPPRLPRPRPRPHIQPRP	-0.699
RRIRSRPPRLPRPRPRPHKIPRP	-0.48
RRIRSRPPRLPRPRPRPHKKPRP	-0.0645
RRIRSRPPRLPRPRPRPHLHPRP	-0.177
RRIRSRPPRLPRPRPRPHLIPRP	-0.303
RRIRSRPPRLPRPRPRPHMSPRP	-0.223
RRIRSRPPRLPRPRPRPHNDPRP	-0.309
RRIRSRPPRLPRPRPRPHNEPRP	-0.382
RRIRSRPPRLPRPRPRPHNTPRP	-0.337
RRIRSRPPRLPRPRPRPHRMPRP	-0.697
RRIRSRPPRLPRPRPRPHSHPRP	-0.282
RRIRSRPPRLPRPRPRPHSTPRP	-0.312
RRIRSRPPRLPRPRPRPHSWPRP	0.122
RRIRSRPPRLPRPRPRPHTAPRP	-0.175
RRIRSRPPRLPRPRPRPHTCPRP	-0.215
RRIRSRPPRLPRPRPRPHTTPRP	-0.0736
RRIRSRPPRLPRPRPRPHTYPRP	-0.265
RRIRSRPPRLPRPRPRPHVKPRP	-0.00963
RRIRSRPPRLPRPRPRPHVMPRP	-0.103
RRIRSRPPRLPRPRPRPHVQPRP	0.132

Sequence	shrunken log2 fold change
RRIRSRPPRLPRPRPRPHWCPRP	-0.125
RRIRSRPPRLPRPRPRPHWDPRP	0.00395
RRIRSRPPRLPRPRPRPHYFPRP	-0.51
RRIRSRPPRLPRPRPRPHYMPRP	-0.273
RRIRSRPPRLPRPRPRPHYRPRP	0.0349
RRIRSRPPRLPRPRPRPHYSPRP	-0.596
RRIRSRPPRLPRPRPRPICPPRP	-0.055
RRIRSRPPRLPRPRPRPIEIPRP	-0.00473
RRIRSRPPRLPRPRPRPIFDPRP	-0.0516
RRIRSRPPRLPRPRPRPIHAPRP	-0.0213
RRIRSRPPRLPRPRPRPIIDPRP	-0.178
RRIRSRPPRLPRPRPRPIIEPRP	-0.114
RRIRSRPPRLPRPRPRPIIQPRP	-0.429
RRIRSRPPRLPRPRPRPIITPRP	-0.507
RRIRSRPPRLPRPRPRPILMPRP	-0.172
RRIRSRPPRLPRPRPRPIPDPRP	-0.0495
RRIRSRPPRLPRPRPRPIQFPRP	-0.396
RRIRSRPPRLPRPRPRPIRCPRP	0.00778
RRIRSRPPRLPRPRPRPISHPRP	-0.421
RRIRSRPPRLPRPRPRPISVPRP	-0.151
RRIRSRPPRLPRPRPRPISWPRP	-0.186
RRIRSRPPRLPRPRPRPITFPRP	-0.716
RRIRSRPPRLPRPRPRPITYPRP	-0.361
RRIRSRPPRLPRPRPRPIVEPRP	1.56
RRIRSRPPRLPRPRPRPIVIPRP	-0.872
